From US20240167012

Columns and labels:
[1] = target: bovine serum albumin, P02769
[2] = target: T1, gluten immunogenic peptide 26-mer from γ-gliadin
T1 chain: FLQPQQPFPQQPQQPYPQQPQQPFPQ

[3] = target: T2, gluten immunogenic peptide 33-mer from α-gliadin
T2 chain: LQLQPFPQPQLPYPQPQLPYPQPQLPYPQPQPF

bovine serum albumin, P02769, sequence (P02769 25-607): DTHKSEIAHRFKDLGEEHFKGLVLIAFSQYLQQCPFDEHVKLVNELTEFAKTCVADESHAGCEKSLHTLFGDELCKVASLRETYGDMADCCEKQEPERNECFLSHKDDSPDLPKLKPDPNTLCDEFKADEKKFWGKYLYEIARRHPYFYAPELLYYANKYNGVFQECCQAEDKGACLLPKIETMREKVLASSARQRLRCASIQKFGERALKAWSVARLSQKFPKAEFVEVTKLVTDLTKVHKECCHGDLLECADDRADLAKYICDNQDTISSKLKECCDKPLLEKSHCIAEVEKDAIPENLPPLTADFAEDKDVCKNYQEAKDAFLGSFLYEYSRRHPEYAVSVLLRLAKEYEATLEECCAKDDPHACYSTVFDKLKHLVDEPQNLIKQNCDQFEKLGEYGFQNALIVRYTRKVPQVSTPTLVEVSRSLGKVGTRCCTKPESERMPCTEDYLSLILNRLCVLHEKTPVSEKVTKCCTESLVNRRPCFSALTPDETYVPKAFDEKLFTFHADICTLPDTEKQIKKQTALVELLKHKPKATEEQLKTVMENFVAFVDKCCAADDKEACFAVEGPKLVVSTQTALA

B1: aspartic protease Rhodotorulapepsin (protein)
chain: SLTSYQNDNLWAGKITIGSPAQSFIMDFDTGSSDLWVPSSACSGSGCGTHARYTATSSSTSKAVTGKTLNVQYGDGSTASGPVYSDSVTVGGLTATGQTFGTATTLTGNFGSSPSDGLVGMAYPALSQLGVPPFFNTLWSEGRVAANSFSFRLATQNSAASELYLGGLNSAKYVAGTTGYTPVISQTYWAINTNVAVNGQAVSGLGTLAAIADTGTTLIVVPTADAQTFWASVPGAAPYSGGGGYYTFPCNQAPKVTFQFPGSLTKWATPYLNLGTVSYGSNQCVGAIVGQDAGLNAWILGDSFLKGVYTTFDFANNRVGFSKLA
- relative proteolytic activity on BSA at different pH (A280 after TCA) [1]: the maximum proteolytic activity of the aspartic protease Rhodotorulapepsin was found at pH 2.5
- relative proteolytic activity on BSA at different temperatures (A280 after TCA) [1]: the aspartic protease Rhodotorulapepsin still has relative activity of 93% at 40 °C
- hydrolysis of gliadin 7.5 mg/ml, SDS-PAGE (pH 3.0, 3 h) (gliadin): even only 250 µg/ml of aspartic protease Rhodotorulapepsin was included in the enzyme mixture, gliadin was completely hydrolyzed
- hydrolysis of gliadin at pH 2.5 to 7.0, R5 ELISA of residual gliadin (gliadin): the maximum activity of the aspartic protease Rhodotorulapepsin on gliadin was at pH 2.5
- hydrolysis of gliadin, SDS-PAGE (gliadin): gliadin had been hydrolyzed by the aspartic acid protease Rhodotorulapepsin after 0.5 hours of reaction under all of the three pH conditions of pH2.5, pH3.0, and pH5.0
- hydrolysis of gliadin, SDS-PAGE of residual gliadin (pH 3.0, 37° C., enzyme:gliadin 1:500) (gliadin): after reaction for 30 minutes, more than 90% of gliadin has been hydrolyzed
- relative activity to hydrolyze gliadin, ELISA of residual gliadin (pH 2.5, 1.5 h, pepsin 1 mg/ml plus Rhodotorulapepsin 0.05 mg/ml) (gliadin): the relative activity thereof is increased by 54% after adding the aspartic protease Rhodotorulapepsin
- hydrolysis of the 26-mer, RP-HPLC (3 h, 37° C.) [2]: the optimal pH value for the hydrolysis reaction of the aspartic protease Rhodotorulapepsin on gluten immunogenic 26-mer is at pH 3.0
- hydrolysis of the 33-mer, RP-HPLC (3 h, 37° C.) [3]: the optimal pH value for the hydrolysis reaction of the aspartic protease Rhodotorulapepsin on gluten immunogenic 33-mer is at pH 5.0
